Assay results: US20250346673A1 (DUALITY BIOLOGICS SUZHOU, published 2025)
Where a chain is given by its changes, count along the chain named.

T1: human FcγRIIA (R167) (human, UniProt P12318 36-218, limits assumed, biotinylated (site not stated))
T1 construct: also called Fe γ RIIA(R167); Fcγ RIJA (R167)
T1 sequence (looked up): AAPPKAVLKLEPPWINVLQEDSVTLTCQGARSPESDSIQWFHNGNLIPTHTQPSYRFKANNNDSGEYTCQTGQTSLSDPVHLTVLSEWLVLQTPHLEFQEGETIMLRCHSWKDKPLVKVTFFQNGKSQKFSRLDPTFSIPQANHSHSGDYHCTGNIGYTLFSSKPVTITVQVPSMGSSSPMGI

T2: human FcγRIIA (H167) (human, UniProt P12318 36-218, limits assumed, biotinylated (site not stated))
T2 construct: also called Fey RIIA (H167)
T2 sequence (looked up): T1 sequence (looked up) with R132H

T3: human BDCA2 (human, UniProt Q8WTT0 1-213)
T3 construct: whole, on cells; also called hBDCA2; Blood dendritic cell antigen 2
T3 sequence (looked up): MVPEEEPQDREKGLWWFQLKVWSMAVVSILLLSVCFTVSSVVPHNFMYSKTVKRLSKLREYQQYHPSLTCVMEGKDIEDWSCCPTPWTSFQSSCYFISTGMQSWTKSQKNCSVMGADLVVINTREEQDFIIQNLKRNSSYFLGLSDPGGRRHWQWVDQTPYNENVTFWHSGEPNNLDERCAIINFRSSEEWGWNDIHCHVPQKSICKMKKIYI

T4: cynomolgus BDCA2 (cynomolgus monkey, UniProt A0A2K5UWP4 1-212)
T4 construct: whole, on cells; also called Cyno BDCA2; cynoBDCA2
T4 sequence: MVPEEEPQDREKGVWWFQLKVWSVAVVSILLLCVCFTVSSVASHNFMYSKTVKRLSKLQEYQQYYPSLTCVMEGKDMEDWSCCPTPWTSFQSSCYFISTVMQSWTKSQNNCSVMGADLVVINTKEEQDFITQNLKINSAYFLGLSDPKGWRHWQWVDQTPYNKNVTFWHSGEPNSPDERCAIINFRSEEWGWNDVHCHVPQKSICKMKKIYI

B1: Hu033-03-T1 (antibody, human IgG1, kappa)
heavy: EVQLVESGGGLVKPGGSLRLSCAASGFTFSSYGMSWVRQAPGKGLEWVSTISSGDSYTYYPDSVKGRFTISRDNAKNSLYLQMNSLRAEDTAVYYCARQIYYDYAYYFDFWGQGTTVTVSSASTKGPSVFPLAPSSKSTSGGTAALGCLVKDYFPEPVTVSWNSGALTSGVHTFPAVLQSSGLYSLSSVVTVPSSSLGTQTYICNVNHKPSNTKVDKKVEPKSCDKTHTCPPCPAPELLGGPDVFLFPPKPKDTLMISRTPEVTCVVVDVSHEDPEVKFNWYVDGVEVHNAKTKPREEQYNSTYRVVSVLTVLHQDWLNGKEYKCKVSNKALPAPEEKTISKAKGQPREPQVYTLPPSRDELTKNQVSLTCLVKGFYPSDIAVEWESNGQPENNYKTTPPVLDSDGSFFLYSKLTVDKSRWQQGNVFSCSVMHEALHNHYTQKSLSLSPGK
light: DIVLTQSPASLAVSPGQRATITCRASESVSFRTSHLMHWYQQKPGQPPKLLIYGASNLESGVPARFSGSGSETDFTLTINPVEAEDTANYFCQQSIEDPPTFGGGTKVEIKRTVAAPSVFIFPPSDEQLKSGTASVVCLLNNFYPREAKVQWKVDNALQSGNSQESVTEQDSKDSTYSLSSTLTLSKADYEKHKVYACEVTHQGLSSPVTKSFNRGEC
notes: Fc-mutated Hu033-03 (IgG1)
B2: Hu033-03-T3 (antibody, human IgG1, kappa)
heavy: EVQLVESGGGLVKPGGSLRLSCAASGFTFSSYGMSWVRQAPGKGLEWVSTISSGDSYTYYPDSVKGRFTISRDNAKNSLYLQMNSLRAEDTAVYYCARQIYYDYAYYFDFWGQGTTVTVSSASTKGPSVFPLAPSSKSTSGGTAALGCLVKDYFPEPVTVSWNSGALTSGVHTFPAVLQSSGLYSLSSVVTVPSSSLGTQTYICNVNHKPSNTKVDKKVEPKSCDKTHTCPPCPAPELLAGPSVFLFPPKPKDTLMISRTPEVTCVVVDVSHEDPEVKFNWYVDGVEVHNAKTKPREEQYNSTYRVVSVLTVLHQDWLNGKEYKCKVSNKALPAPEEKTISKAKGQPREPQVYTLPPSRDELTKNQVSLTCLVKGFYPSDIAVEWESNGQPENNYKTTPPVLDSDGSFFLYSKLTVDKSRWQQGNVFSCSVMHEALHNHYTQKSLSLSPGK
light: B1 light
notes: Fc-mutated Hu033-03 (IgG1)
B3: Hu033-03-T2 (antibody, human IgG1, kappa)
heavy: EVQLVESGGGLVKPGGSLRLSCAASGFTFSSYGMSWVRQAPGKGLEWVSTISSGDSYTYYPDSVKGRFTISRDNAKNSLYLQMNSLRAEDTAVYYCARQIYYDYAYYFDFWGQGTTVTVSSASTKGPSVFPLAPSSKSTSGGTAALGCLVKDYFPEPVTVSWNSGALTSGVHTFPAVLQSSGLYSLSSVVTVPSSSLGTQTYICNVNHKPSNTKVDKKVEPKSCDKTHTCPPCPAPELLAGPDVFLFPPKPKDTLMISRTPEVTCVVVDVSHEDPEVKFNWYVDGVEVHNAKTKPREEQYNSTYRVVSVLTVLHQDWLNGKEYKCKVSNKALPAPEEKTISKAKGQPREPQVYTLPPSRDELTKNQVSLTCLVKGFYPSDIAVEWESNGQPENNYKTTPPVLDSDGSFFLYSKLTVDKSRWQQGNVFSCSVMHEALHNHYTQKSLSLSPGK
light: B1 light
notes: Fc-mutated Hu033-03 (IgG1)
B4: mAb032 (antibody, V domains shown)
VH: DVQLQESGPGLVKPSQSLSLTCSVTGYSITSGYYWNWIRQFPGNKLECMGYISYDGSNYYNPSLKNRISITRDTSKNQFFLSLNSVTTEDTATYFCVRGGDYDDGGFAYWGQGTLVTVSA
VL: DIQMTQSPASLSASVGETVTITCRASGNIHNYLAWYQQKQGKSPQLLVYNAKTLADGVPSRFSGSGSETQYSLKINSLQPEDFGNYFCQHFWIIPYTFGGGTKLEIK
notes: Mouse hybridoma antibody
B5: mAb001 (antibody, V domains shown)
VH: QIQLVQSGPELKKPGETVKISCKASGYTFTDFSMHWVKQAPGKGLKWMGWINTETGEPTYADDFKGRFAFSLETSASTAFLQINNLKNDDTTTYFCSRGGDGHPYWYFAVWGAGTTVTVSS
VL: DIVLTQSPASLAVSLGQRATISCRASQSVSTSSYSYMHWYQQKPGQPPKLLIKYASILESGVPARFSGSGSGTDFTLNIHPVEEEDTATYYCQHSWEIPFTFGSGTKLEIK
notes: Mouse hybridoma antibody
B6: mAb002 (antibody, V domains shown)
VH: QIQLVQSGPELKKPGETVKISCRASGYSFTDYSMHWVKQAPGKGLKWVGWINTETGEPTYADDFKGRFALSLETSATSAYLQINNLKNEDTATYFCARGGDGFPYWYFNVWGAGTTVTVSS
VL: B5 VL with A9T, A19T, T20N, Y34N, M37I, I57N, E59D, A88S
notes: Mouse hybridoma antibody
B7: mAb005 (antibody, V domains shown)
VH: QVQLKQSGPGLVQPSQSLSITCTVSGFSLTNYGVHWVRQSPGKGLEWLGVIWSGESTDYDAAFISRLSISKDNSKSQVFFKMNSLQADDSAIYYCARRRSHYYGYVMDYWGQGTSVTVSS
VL: DIVLTQSPASLAVSLGQRATISCKASQSIDYDGIGYLNWYQHKPGQPPKLLIYAASNLESGIPARFSGSGSGTDFTLNIHPVEEEDAATYYCQQSNEDPPTFGSGTKLEIK
notes: Mouse hybridoma antibody
B8: mAb026 (antibody, V domains shown)
VH: DVQLQESGPGLVKPSQSLSLTCSVTGYSITSAYYWNWIRQFPGHKLEWMGYISYDGSNNYNPSLKNRISITRDTSKNQFFLKLNSVTTEDTATYHCARGVDYPNAIDWWGQGTSLTVSS
VL: DIVLTQSPTSLTVSLGQRATISCRASESVSIHGTHLMHWYQQKPGQPPKLLIYVASYLESGVPARFSGSGSETDFSLNIHPVEEEDAATYFCQQSFEDPWTFGGGTKLEIK
notes: Mouse hybridoma antibody

Tests used:
human FcγRIIA (R167) [1] = molecular target: T1, human FcγRIIA (R167); assay: SPR (BIAcore 8K), biotinylated FcγRIIA (R167) on SA chip, antibody as analyte, 1:1 binding
Experimental: (§1) Antibody kinetics or affinity parameters were measured using BIAcore 8K and freshly fixed biotinylated human Fe γ RIIA(R167)/Fc γ RIIA (H167) SA chips. The experiment was run at 25° C. with a running buffer of 1×HBS-EP+(10 mM HEPES pH 7.4, 150 mM NaCl, 3 mM EDTA, 0.05% Surfactant P20). […] The binding and dissociation times of the antibody were 60 and 90 seconds, respectively. Two zero concentration samples are used to remove background signals. The sample was injected in a multi cycle manner, the analyte can be fully dissociated from the chip surface at the end of each cycle, and no regeneration step was applied. Data analysis was perform using Biacore Insight Evaluation Software (Version 2.0.15.12933). After deducting the reference channel (flow cell 1) and two zero concentration signals, affinity analysis was performed using a 1:1 binding model or steady-state model for curve fitting and calculation of kinetic parameters.

human FcγRIIA (H167) [2] = molecular target: T2, human FcγRIIA (H167); assay: SPR (BIAcore 8K), biotinylated FcγRIIA (H167) on SA chip, antibody as analyte, 1:1 binding
Experimental: as §1

human FcγRIIA (H167) [3] = molecular target: T2, human FcγRIIA (H167); assay: SPR, FcγRIIA (H167); against the wild-type Fc antibody Hu033-03
Experimental: as §1

human FcγRIIA (R167) [4] = molecular target: T1, human FcγRIIA (R167); assay: SPR, FcγRIIA (R167); against the wild-type Fc antibody Hu033-03
Experimental: as §1

human BDCA2 [5] = molecular target: T3, human BDCA2; assay: FACS on CHOK1-hBDCA2 cells; EC50 table under the plot, unit from the x axis (nM) [continued) d.]
Outline: (§2)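 Cell binding, FACS: 2×10⁶ cells/mL; serial antibody dilutions, 1 h 4° C; 2× wash; donkey anti-mouse IgG-AF488 1:1000, 1 h 4° C; 2× wash; PBS resuspension, flow read; EC₅₀ by curve fit.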

[6] = molecular target: T5, Human BDCA2 Fc recombinant protein (human); assay: ELISA, coated humanBDCA2 Fc
T5 construct: Human IgG1 Fc N-terminal of the BDCA2 extracellular domain (Asn45-Ile213), fused by a linker; also called BDCA2-Fc protein
Experimental: HumanBDCA2 Fc protein or cynoBDCA2 His protein was diluted with PBS to 1 μg/mL and added to ELISA microplates at 100 μL/well and incubated at 4° C. overnight. The plates were blocked with ELISA blocking solution (PBS phosphate buffer with 1% BSA, pH 7.4, the percentages representing mass percentages) at 37° C. for 2 hours. Sequential 10-fold serial dilutions of antibodies were added at 8 concentrations (0.0001 nM-100 nM, including 0 point control) in total at 100 μL/well. The plates were incubated at 37° C. for 1 hour, then washed 3 times and after anti-mouse IgG (Fab specific)-HRP (Sigma, A3682; 1: 5000 dilution) secondary antibodies were added at 100 μL/well, were incubated at 37° C. for 1 h. The plates were washed 3 times, TMB development fluid (EL0009, Huzhou Ying Chuang Biotechnology) was added at 100 μL/well and 50 μL 1N hydrochloric acid was added after incubation at 37° C. for 10 min to stop the development reaction. OD450 nm values were read with ELISA plate reader and the curve was fitted with GraphPad Prism6, and EC₅₀ values were calculated.

cynomolgus BDCA2 [7] = molecular target: T4, cynomolgus BDCA2; assay: FACS on 293F-cynoBDCA2 cells; EC50 table under the plot, unit from the x axis (nM) [continued) d.]
Outline: as §2

human BDCA2 [8] = molecular target: T3, human BDCA2; assay: FACS on CHOK1-hBDCA2 cells; EC50 table under the plot, unit from the x axis (nM)
Experimental: (§3) The cells were recovered and resuspended to 2×10⁶/mL with FACS buffer (PBS+2% FBS). The cells were added to 3799 cell plates (Corning) at 100 μL/well, and the supernatant was discarded after centrifugation at 300 g. The antibodies were serially diluted with FACS buffer (Id.), the diluted antibodies were added to centrifuged cells and the cells were resuspended. The cells were incubated at 4° C. for 1 h. The incubated cells were then centrifuged at […] for 5 min and washed twice with FACS buffer. 100 μL Donkey anti-Mouse IgG (H+L) Highly Cross-Adsorbed Secondary Antibody-Alexa Fluor 488 (Invitrogen, A21202; 1:1000) secondary antibody was added to the cells, which were washed twice with FACS buffer after incubation at 4° C. for 1 h, resuspended with PBS, analyzed with FACS (BD FACS CantoTM II) instrument. The curve was fitted with GraphPad Prism6, and EC₅₀ values were calculated.

cynomolgus BDCA2 [9] = molecular target: T4, cynomolgus BDCA2; assay: FACS on 293F-cynoBDCA2 cells; EC50 table under the plot, unit from the x axis (nM)
Experimental: as §3

human BDCA2 [10] = molecular target: T3, human BDCA2; assay: cell-based or functional assay

| Binder | Kd (human FcγRIIA (R167) [1]) | koff (human FcγRIIA (R167) [1]) | kon (human FcγRIIA (R167) [1]) | Kd (human FcγRIIA (H167) [2]) | koff (human FcγRIIA (H167) [2]) | kon (human FcγRIIA (H167) [2]) | Multiple of affinity (human FcγRIIA (H167) [3]) | Multiple of affinity (human FcγRIIA (R167) [4]) | EC50 (human BDCA2 [8]) | EC50 (cynomolgus BDCA2 [9]) | also measured |
| --- | --- | --- | --- | --- | --- | --- | --- | --- | --- | --- | --- |
| B1 | 310 nM | 0.232 s⁻¹ | 750000 M⁻¹ s⁻¹ | 490 nM | 0.23 s⁻¹ | 470000 M⁻¹ s⁻¹ | 2.3 fold | 4 fold |  |  |  |
| B2 | 303 nM | 0.225 s⁻¹ | 741000 M⁻¹ s⁻¹ | 162 nM | 0.0894 s⁻¹ | 551000 M⁻¹ s⁻¹ | 7.3 fold | 4.4 fold |  |  |  |
| B3 | 45.8 nM | 0.0899 s⁻¹ | 1.96e+06 M⁻¹ s⁻¹ | 103 nM | 0.0585 s⁻¹ | 570000 M⁻¹ s⁻¹ | 10 fold | 13.7 fold |  |  |  |
| B4 |  |  |  |  |  |  |  |  |  |  | EC50 (human BDCA2 [5]): 0.225 nM; EC50 [6]: < 0.3 nM; EC50 (cynomolgus BDCA2 [7]): 0.359 nM |
| B5 |  |  |  |  |  |  |  |  | 1.37 nM | 6.08 nM |  |
| B6 |  |  |  |  |  |  |  |  | 1.89 nM | 7.05 nM |  |
| B7 |  |  |  |  |  |  |  |  | 1.83 nM | 2.11 nM | IC50 for inhibiting cytokine IFNα release, CpG-A stimulated human PBMC (human BDCA2 [10]): 0.0867 nM |
| B8 |  |  |  |  |  |  |  |  |  |  | EC50 (human BDCA2 [5]): 0.773 nM; EC50 [6]: < 0.3 nM; EC50 (cynomolgus BDCA2 [7]): 2.49 nM |
